The values below come from article PMC9352719, “Interaction between transcribing RNA polymerase and topoisomerase I prevents R-loop formation in E. coli”.

The target in data set [1] is T1, EcTopoI (topoisomerase I) (Escherichia coli DY330, UniProt P06612 1-865). Description: competition; vs labeled Consensus R; about as efficient as Consensus R; EMSA: 10 mM Tris-HCl pH 7.5, 50 mM NaCl, 6 mM MgCl2, 37 C 10 min; MST: same plus 0.05% Tween-20, 22 C. Conditions: protein: recombinant; single strand. (In EMSA bound probe runs differently from free probe, usually more slowly.)
T1 sequence (P06612 whole entry): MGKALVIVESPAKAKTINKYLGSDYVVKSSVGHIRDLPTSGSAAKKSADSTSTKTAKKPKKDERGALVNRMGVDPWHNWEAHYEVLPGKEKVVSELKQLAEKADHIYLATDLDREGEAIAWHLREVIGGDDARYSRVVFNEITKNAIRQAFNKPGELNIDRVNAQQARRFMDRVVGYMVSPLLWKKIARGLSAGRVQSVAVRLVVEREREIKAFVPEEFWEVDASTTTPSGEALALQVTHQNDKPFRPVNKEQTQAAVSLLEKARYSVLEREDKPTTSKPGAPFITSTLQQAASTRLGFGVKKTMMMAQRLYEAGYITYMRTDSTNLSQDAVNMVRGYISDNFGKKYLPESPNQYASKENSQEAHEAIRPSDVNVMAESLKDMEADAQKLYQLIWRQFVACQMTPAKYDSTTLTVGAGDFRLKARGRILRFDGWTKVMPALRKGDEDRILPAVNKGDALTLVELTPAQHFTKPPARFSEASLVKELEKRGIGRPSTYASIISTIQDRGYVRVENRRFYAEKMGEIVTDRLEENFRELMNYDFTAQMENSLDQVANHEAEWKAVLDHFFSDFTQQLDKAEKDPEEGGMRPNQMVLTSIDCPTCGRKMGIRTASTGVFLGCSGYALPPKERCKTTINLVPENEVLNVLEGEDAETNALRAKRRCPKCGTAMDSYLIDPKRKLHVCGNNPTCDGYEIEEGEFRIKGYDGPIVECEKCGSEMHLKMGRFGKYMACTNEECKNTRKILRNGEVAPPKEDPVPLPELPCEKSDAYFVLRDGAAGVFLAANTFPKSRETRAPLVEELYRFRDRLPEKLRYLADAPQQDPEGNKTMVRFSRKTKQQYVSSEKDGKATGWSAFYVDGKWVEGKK

Data set [2] has as its target T1, EcTopoI (topoisomerase I). Description: EMSA; 6 mM Mg2+; EMSA: 10 mM Tris-HCl pH 7.5, 50 mM NaCl, 6 mM MgCl2, 37 C 10 min; MST: same plus 0.05% Tween-20, 22 C. Conditions: protein: recombinant; label: 5'-Cy5; single strand.
Data set [3] concerns the target T1, EcTopoI (topoisomerase I). The data set is described as follows: MST; 6 mM Mg2+; range for both random oligos; EMSA: 10 mM Tris-HCl pH 7.5, 50 mM NaCl, 6 mM MgCl2, 37 C 10 min; MST: same plus 0.05% Tween-20, 22 C. Conditions: protein: recombinant; label: 5'-Cy5; single strand.

By Kd is commonly meant the concentration at which binding is half-saturated.

In the case of CGCAAAAAAAAAAAAAAAAAAAACGC (ssDNA) [Poly-A, unlabeled], the binding result in data set [1] is listed as “binds”.

Consider GCGTTTTTTTCTTCATTATTTTTGCG (ssDNA) [Consensus F], for which, in data set [2], the Kd was 190 ± 87 nM.

In the case of CGCAAAAATAATGAAGAAAAAAACGC (ssDNA) [Consensus R], the Kd in data set [2] worked out at 207 ± 76 nM.

As to CGCTCCGCACTGCGGATTACGTGCGC (ssDNA) [Random R], in data set [3], the Kd was ~324 nM.

Take GCGCACGTAATCCGCAGTGCGGTGCG (ssDNA) [Random F]: the Kd in data set [3] is ~324 nM.
